Measured values reported in patent US20060142192A1 (ZymoGenetics, published 2006).

Experiments:
Experiment in all cases: flow cytometry, biotinylated IL-17C (1 ug/ml) + streptavidin-PE on stably transfected BHK cells
human ZcytoR21x6 = biological target: T1, human ZcytoR21x6 (human, UniProt Q8NFR9 24-667)
T1 construct: also called hcytor21x6
T1 sequence: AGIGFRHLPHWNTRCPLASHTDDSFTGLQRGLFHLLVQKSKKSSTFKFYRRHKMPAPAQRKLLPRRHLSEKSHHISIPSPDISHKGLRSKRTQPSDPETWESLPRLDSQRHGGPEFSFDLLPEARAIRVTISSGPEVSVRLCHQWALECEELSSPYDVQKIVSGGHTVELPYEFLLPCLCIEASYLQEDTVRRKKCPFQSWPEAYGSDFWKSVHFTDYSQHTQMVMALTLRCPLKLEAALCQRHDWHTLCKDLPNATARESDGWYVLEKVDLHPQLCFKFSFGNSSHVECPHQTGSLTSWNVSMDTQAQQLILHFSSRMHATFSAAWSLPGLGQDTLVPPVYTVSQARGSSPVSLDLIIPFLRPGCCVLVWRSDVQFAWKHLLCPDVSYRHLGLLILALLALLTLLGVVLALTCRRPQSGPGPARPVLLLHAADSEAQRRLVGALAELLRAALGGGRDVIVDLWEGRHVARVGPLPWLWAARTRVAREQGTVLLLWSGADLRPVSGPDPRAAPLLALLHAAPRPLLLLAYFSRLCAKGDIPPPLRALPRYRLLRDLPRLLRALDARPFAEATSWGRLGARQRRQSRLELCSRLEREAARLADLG
Procedure: (§1) BHK cells stably transfected with human and mouse ZcytoR21 splice variants were plated and grown to confluency in T-75 flasks. Cells were lifted off using a non-protease reagent such as Versene (Invitrogen 15040-066), pelleted, and resuspended in a staining reagent (HBSS+1% BSA+0.1% NaAzide+10 mM HEPES) at 2×10e7 cells/ml and aliquoted to a 96-well Costar plate. IL-17C that has been labeled with biotin was independently added to cells at a concentration of 1 ug/ml. The cell/ligand mixture can be incubated for 1 hr at 4 degrees. The wells were washed 1× in staining reagent, and incubated in a secondary reagent containing staining reagent plus Streptavidin-PE (BD Pharmingen 554061) at a 1:100 ratio. The wells were incubated at 4° C. in the dark for 1 hr, followed by a 2× wash in staining media. The cells were then resuspended in a 1:1 mixture of staining media and Cytofix (BD Bioscience 554655) and incubated 10 minutes at RT. The cells were analysed by Flow Cytometry and by gating on the PE positive events for cells that bound IL-17C.

human ZcytoR21x13 = biological target: T2, human ZcytoR21x13 (human, UniProt Q8NFR9 24-667)
T2 construct: also called hcytor21x13
T2 sequence: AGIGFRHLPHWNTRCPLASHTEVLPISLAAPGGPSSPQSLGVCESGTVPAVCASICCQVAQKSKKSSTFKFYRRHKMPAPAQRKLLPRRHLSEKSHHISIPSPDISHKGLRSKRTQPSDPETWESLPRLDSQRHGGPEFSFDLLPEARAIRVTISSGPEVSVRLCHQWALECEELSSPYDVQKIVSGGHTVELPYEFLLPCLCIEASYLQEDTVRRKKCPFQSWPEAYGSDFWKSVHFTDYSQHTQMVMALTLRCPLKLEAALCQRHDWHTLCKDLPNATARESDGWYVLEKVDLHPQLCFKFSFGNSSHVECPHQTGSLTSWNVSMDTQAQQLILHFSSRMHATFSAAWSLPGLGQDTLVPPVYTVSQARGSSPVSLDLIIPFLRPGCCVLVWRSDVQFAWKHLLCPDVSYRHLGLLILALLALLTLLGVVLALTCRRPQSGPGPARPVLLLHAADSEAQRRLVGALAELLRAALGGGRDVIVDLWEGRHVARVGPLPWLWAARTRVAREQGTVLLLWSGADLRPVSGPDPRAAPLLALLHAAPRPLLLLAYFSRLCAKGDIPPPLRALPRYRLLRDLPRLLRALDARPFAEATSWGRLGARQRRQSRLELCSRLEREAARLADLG
Procedure: as §1

murine ZcytoR21x6 = biological target: T3, murine ZcytoR21x6 (mouse, UniProt Q8BH06 24-637)
T3 construct: also called mouse ZcytoR21x6; mcytor21x6
T3 sequence: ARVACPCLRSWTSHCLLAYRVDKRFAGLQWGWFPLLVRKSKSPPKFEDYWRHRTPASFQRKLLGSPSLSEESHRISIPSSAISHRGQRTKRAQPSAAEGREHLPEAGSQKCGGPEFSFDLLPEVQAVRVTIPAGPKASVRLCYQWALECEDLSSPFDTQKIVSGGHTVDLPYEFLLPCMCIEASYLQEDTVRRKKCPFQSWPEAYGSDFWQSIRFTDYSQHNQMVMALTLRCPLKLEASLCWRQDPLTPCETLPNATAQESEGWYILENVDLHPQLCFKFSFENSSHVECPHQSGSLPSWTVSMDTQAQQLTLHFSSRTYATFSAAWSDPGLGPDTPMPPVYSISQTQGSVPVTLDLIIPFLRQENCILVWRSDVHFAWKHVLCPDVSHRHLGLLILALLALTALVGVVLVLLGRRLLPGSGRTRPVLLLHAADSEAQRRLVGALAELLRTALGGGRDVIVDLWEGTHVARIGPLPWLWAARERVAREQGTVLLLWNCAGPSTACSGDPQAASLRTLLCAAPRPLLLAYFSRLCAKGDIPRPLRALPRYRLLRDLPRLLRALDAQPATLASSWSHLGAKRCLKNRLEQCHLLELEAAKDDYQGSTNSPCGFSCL
Procedure: as §1

- binding result (human ZcytoR21x6): binds
- binding result (human ZcytoR21x13): binds
- binding result (murine ZcytoR21x6): binds
B1: human IL-17C (ligand)
chain: HHDPSLRGHPHSHGTPHCYSAEELPLGQAPPHLLARGAKWGQALPVALVSSLEAASHRGRHERPSATTQCPVLRPEEVLEADTHQRSISPWRYRVDTDEDRYPQKLAFAECLCRGCIDARTGRETAALNSVRLLQSLLVLRRRPCSRDGSGLPTPGAFAFHTEFIHVPVGCTCVLPRSV
modifications: biotin label in the binding assays (sites not given); unlabelled in the signalling assays
notes: it is the last residue of the open reading frame as I know it; Recombinant forms made carried a C-terminal Glu-Glu tag (BHK) or His tag (293F); also called biotinylated human IL-17C; human IL-17C (A903G)
